Key:
[1] = target: HLA-A*01:01; test: IEDB peptide-MHC binding, purified MHC/competitive/radioactivity; filed as Kd, often an IC50 or EC50 that approximates it; ≥ and ≤ were set here for values at or beyond the usual limits of such assays; conditions: source organism: Homo sapiens
[2] = target: HLA-A*01:01; test: IEDB peptide-MHC binding, purified MHC/competitive/radioactivity; ≥ and ≤ were set here for values at or beyond the usual limits of such assays; conditions: source organism: Homo sapiens

Sequence | Kd [1] [µM] | IC50 [2] [µM]
LLGDNQIMPK | ≥ 36 | –
LVTCLGLSY | 2.98 | –
LVFGIELMEV | ≥ 36 | –
KVAELVHFL | ≥ 36 | –
FATCLGLSY | – | 0.658
LGSVVGNWQY | 12.5 | –
NYPLWSQSY | ≥ 36 | –
LYIFATCLGL | ≥ 36 | –
IFATCLGLSY | 12.5 | –
KMVELVHFLL | ≥ 36 | –

Source: the Immune Epitope Database (IEDB)
